Where a chain is given by its changes, count along the chain named.
T1: human MAdCAM (human, UniProt Q13477 19-317, limits assumed)
T1 construct: also called huMAdCAM; human MAdCAM-1
T1 sequence (looked up): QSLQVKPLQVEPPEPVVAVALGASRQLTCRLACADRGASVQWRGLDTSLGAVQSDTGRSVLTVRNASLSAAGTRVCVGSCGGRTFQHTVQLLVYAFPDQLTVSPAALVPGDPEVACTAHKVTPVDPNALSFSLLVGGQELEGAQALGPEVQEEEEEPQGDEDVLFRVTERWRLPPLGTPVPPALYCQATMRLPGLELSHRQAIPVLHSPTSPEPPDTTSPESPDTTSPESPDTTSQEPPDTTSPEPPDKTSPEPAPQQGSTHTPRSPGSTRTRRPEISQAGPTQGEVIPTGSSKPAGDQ

T2: mouse MAdCAM (mouse, UniProt Q61826 22-365, limits assumed)
T2 construct: also called mouse MAdCAM-1; muMAdCAM
T2 sequence (looked up): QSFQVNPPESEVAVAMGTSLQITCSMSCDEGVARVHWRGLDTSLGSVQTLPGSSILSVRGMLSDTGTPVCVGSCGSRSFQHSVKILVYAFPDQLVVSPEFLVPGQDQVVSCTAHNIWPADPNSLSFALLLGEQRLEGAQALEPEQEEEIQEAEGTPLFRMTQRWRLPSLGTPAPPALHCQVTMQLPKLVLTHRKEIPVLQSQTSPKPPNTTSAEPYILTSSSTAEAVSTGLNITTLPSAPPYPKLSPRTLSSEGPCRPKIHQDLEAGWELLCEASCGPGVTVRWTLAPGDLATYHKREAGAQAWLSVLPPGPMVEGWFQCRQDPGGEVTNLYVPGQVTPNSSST

B1: PMAB24 (bispecific antibody, human IgG1, kappa)
heavy: EVQLLESGGGLVQPGGSLRLSCAASGFTFSNSDMSWVRQAPGKGLEWVSGITISGGSTYYADSVKGRFTISRDNSKNTLYLQMNSLRAEDTAVYYCARGRGGSGWLDYWGQGTLVTVSSASTKGPSVFPLAPSSKSTSGGTAALGCLVKDYFPEPVTVSWNSGALTSGVHTFPAVLQSSGLYSLSSVVTVPSSSLGTQTYICNVNHKPSNTKVDKKVEPKSCDKTHTCPPCPAPEAAGAPSVFLFPPKPKDTLMISRTPEVTCVVVDVSHEDPEVKFNWYVDGVEVHNAKTKPREEQYNSTYRVVSVLTVLHQDWLNGKEYKCKVSNKALPAPIEKTISKAKGQPREPQVYTLPPSREEMTKNQVSLTCLVKGFYPSDIAVEWESNGQPENNYKTTPPVLDSDGSFFLYSKLTVDKSRWQQGNVFSCSVMHEALHNHYTQKSLSLSPGGGGGSGGGGSGGGGSEVQLLESGGGLVQPGGSLRLSCAASGFTFSDFWMHWVRQAPGKGLEWISAISGDSGYTNYADSVKGRFTISRDNSKNTLYLQMNSLRAEDTAVYYCARDRPYYYYMDVWGKGTTVTVSSGGGGSGGGGSGGGGSGGGGSDIQMTQSPSSLSASVGDRVTITCRASQSVSRSLAWYQQKPGKAPKLLIYAASSLQSGVPSRFSGSGSGTDFTLTISSLQPEDFATYYCQQYKSYPVTFGQGTKVEIK
light: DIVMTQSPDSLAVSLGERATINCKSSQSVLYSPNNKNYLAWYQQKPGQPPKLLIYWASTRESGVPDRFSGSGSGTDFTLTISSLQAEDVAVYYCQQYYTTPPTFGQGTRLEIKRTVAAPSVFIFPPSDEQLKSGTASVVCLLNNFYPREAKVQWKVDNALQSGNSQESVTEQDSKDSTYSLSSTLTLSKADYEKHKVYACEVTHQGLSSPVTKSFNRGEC
B2: PMAB26 (bispecific antibody, human IgG1, kappa)
heavy: B1 heavy with A513Y, S518G
light: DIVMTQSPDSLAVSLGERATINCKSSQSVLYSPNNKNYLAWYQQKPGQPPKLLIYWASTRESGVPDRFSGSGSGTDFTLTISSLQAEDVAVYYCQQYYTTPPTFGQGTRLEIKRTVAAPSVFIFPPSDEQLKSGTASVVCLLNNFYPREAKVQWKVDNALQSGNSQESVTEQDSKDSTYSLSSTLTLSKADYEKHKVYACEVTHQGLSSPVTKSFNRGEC
B3: PMAB42 (bispecific antibody, human IgG1, kappa)
heavy: B1 heavy with A513Y, Y696T
light: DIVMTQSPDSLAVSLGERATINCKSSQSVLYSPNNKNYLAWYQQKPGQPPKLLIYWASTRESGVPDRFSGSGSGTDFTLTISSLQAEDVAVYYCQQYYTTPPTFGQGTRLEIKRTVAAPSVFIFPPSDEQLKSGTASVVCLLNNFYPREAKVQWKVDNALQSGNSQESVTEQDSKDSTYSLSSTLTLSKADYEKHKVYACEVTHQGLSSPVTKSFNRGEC
B4: PMAB36 (bispecific antibody, human IgG1, kappa)
heavy: B1 heavy with A513Y, V631I
light: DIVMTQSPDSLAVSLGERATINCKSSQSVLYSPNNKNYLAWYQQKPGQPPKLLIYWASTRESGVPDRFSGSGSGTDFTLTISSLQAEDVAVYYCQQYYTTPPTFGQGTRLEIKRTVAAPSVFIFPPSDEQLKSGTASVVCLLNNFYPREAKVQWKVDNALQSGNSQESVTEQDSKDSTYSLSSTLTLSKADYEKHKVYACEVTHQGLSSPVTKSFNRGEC
B5: PMAB37 (bispecific antibody, human IgG1, kappa)
heavy: B1 heavy with A513Y, R633S
light: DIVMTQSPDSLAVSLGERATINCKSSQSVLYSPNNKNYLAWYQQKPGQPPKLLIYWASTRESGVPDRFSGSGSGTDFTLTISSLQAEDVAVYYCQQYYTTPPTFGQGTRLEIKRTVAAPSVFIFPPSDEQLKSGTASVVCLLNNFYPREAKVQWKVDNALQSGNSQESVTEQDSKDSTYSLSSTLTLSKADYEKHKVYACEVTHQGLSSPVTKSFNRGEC
B6: PMAB23 (bispecific antibody, human IgG1, kappa)
heavy: B1 heavy with I511V, A513Y
light: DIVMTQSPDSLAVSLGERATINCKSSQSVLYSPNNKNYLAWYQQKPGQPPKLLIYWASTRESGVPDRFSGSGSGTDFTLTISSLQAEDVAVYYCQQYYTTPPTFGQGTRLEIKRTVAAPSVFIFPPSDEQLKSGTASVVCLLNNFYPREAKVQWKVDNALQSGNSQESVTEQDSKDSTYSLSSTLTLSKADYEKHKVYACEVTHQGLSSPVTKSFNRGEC
B7: PMAB25 (bispecific antibody, human IgG1, kappa)
heavy: B1 heavy with A513Y, D517S
light: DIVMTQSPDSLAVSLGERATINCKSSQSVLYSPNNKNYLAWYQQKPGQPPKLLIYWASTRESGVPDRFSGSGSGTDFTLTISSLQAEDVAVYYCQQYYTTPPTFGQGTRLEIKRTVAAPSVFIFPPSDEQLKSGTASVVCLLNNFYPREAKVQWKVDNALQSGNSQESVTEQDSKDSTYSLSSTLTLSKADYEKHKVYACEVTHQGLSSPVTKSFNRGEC
B8: PMAB27 (bispecific antibody, human IgG1, kappa)
heavy: B1 heavy with A513Y, Y520S
light: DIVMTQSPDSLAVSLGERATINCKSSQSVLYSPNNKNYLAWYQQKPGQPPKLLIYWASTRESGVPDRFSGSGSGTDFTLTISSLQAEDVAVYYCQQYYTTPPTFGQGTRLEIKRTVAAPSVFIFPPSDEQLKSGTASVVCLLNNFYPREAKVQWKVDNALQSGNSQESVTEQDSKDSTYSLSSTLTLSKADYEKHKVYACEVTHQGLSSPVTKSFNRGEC
B9: PMAB28 (bispecific antibody, human IgG1, kappa)
heavy: B1 heavy with A513Y, N522Y
light: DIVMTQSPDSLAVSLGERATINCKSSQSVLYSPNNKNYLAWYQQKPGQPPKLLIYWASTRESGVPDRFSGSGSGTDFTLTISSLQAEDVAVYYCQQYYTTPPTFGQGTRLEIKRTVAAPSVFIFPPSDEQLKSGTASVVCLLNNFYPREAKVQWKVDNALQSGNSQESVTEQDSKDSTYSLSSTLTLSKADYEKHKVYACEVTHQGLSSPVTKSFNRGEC
B10: PMAB18 (bispecific antibody, human IgG1, kappa)
heavy: QVQLVQSGAEVKKPGASVKVSCKASGYSFTTYYMHWVRQAPGQGLEWMGIIAPSGGSTSYAQKFQGRVTMTRDTSTSTVYMELSSLRSEDTAVYYCASGWVYWGQGTLVTVSSASTKGPSVFPLAPSSKSTSGGTAALGCLVKDYFPEPVTVSWNSGALTSGVHTFPAVLQSSGLYSLSSVVTVPSSSLGTQTYICNVNHKPSNTKVDKKVEPKSCDKTHTCPPCPAPEAAGAPSVFLFPPKPKDTLMISRTPEVTCVVVDVSHEDPEVKFNWYVDGVEVHNAKTKPREEQYNSTYRVVSVLTVLHQDWLNGKEYKCKVSNKALPAPIEKTISKAKGQPREPQVYTLPPSREEMTKNQVSLTCLVKGFYPSDIAVEWESNGQPENNYKTTPPVLDSDGSFFLYSKLTVDKSRWQQGNVFSCSVMHEALHNHYTQKSLSLSPGGGGGSGGGGSGGGGSEVQLLESGGGLVQPGGSLRLSCAASGFTFSSYWMHWVRQAPGKGLEWVSYISGSGGYTNYADSVKGRFTISRDNSKNTLYLQMNSLRAEDTAVYYCARDRPYYYDMDVWGKGTTVTVSSGGGGSGGGGSGGGGSGGGGSDIQMTQSPSSLSASVGDRVTITCRASQSISSSLAWYQQKPGKAPKLLIYAASSLQSGVPSRFSGSGSGTDFTLTISSLQPEDFATYYCQQYKSYPVTFGQGTKVEIK
light: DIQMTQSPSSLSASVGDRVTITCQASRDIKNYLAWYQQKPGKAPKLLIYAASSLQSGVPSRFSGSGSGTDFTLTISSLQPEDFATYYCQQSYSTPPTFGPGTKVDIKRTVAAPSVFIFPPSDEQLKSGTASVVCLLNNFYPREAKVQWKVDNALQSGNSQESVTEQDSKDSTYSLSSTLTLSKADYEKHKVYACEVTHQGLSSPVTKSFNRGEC
B11: PMAB54 (bispecific antibody, human IgG1, kappa)
heavy: B10 heavy with Q1E, T31S, A52N, M563I
light: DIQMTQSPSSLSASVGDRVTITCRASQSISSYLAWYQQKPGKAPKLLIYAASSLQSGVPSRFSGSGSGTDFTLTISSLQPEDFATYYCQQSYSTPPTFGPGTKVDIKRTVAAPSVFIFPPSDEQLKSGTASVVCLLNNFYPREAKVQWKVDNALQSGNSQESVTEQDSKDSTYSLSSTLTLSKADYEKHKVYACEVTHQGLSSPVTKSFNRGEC
B12: PMAB55 (bispecific antibody, human IgG1, kappa)
heavy: B10 heavy with Q1E, T31S, A52N, M563L
light: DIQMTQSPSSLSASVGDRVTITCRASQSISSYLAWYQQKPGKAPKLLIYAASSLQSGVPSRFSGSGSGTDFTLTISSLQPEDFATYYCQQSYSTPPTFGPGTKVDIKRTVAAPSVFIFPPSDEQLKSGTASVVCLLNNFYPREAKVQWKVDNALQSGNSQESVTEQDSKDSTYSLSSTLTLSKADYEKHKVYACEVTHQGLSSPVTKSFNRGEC
B13: PMAB15 (bispecific antibody, human IgG1, kappa)
heavy: EVQLLESGGGLVQPGGSLRLSCAASGFTFSSYDMSWVRQAPGKGLEWVSGITISGGSTYYADSVKGRFTISRDNSKNTLYLQMNSLRAEDTAVYYCARGRGGSGWLDYWGQGTLVTVSSASTKGPSVFPLAPSSKSTSGGTAALGCLVKDYFPEPVTVSWNSGALTSGVHTFPAVLQSSGLYSLSSVVTVPSSSLGTQTYICNVNHKPSNTKVDKKVEPKSCDKTHTCPPCPAPEAAGAPSVFLFPPKPKDTLMISRTPEVTCVVVDVSHEDPEVKFNWYVDGVEVHNAKTKPREEQYNSTYRVVSVLTVLHQDWLNGKEYKCKVSNKALPAPIEKTISKAKGQPREPQVYTLPPSREEMTKNQVSLTCLVKGFYPSDIAVEWESNGQPENNYKTTPPVLDSDGSFFLYSKLTVDKSRWQQGNVFSCSVMHEALHNHYTQKSLSLSPGGGGGSGGGGSGGGGSEVQLLESGGGLVQPGGSLRLSCAASGFTFSSYWMHWVRQAPGKGLEWVSAISGSGGSTYYADSVKGRFTISRDNSKNTLYLQMNSLRAEDTAVYYCARDRPYYYDMDVWGKGTTVTVSSGGGGSGGGGSGGGGSGGGGSDIQMTQSPSSLSASVGDRVTITCRASQSISSSLAWYQQKPGKAPKLLIYAASSLQSGVPSRFSGSGSGTDFTLTISSLQPEDFATYYCQQYKSYPVTFGQGTKVEIK
light: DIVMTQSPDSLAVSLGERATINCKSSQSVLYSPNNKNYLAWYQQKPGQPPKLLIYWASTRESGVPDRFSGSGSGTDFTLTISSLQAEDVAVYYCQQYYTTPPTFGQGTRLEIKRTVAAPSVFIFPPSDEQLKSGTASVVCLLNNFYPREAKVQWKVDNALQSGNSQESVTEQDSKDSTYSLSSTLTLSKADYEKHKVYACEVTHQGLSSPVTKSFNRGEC
B14: PMAB17 (bispecific antibody, human IgG1, kappa)
heavy: B13 heavy with L114D, Y566G, D568Y
light: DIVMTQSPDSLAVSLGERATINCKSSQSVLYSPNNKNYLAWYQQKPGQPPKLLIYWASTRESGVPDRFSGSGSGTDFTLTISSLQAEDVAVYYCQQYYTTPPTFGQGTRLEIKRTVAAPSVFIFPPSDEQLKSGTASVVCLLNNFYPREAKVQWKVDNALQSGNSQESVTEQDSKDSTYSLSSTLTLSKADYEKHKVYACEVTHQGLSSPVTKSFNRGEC
B15: PMAB56 (bispecific antibody, human IgG1, kappa)
heavy: B13 heavy with L114T, A513Y, S520Y, Y522N, M569L
light: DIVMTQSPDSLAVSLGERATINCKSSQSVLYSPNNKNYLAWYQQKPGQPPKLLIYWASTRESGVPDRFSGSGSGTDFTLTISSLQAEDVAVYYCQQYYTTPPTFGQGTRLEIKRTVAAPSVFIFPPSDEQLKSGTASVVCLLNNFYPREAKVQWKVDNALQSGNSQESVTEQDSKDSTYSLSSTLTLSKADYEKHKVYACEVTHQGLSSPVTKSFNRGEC
B16: PMAB53 (bispecific antibody, human IgG1, kappa)
heavy: B13 heavy with L114T, A513Y, S520Y, Y522N, M569I
light: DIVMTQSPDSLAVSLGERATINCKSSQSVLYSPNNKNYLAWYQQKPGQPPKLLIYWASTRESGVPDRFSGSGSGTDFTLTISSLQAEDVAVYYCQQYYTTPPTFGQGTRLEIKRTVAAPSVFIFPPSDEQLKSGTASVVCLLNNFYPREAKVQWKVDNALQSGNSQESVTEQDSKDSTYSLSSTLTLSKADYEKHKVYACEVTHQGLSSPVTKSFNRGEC
B17: PMAB16 (bispecific antibody, human IgG1, kappa)
heavy: B13 heavy with A513Y, S520Y, Y522N
light: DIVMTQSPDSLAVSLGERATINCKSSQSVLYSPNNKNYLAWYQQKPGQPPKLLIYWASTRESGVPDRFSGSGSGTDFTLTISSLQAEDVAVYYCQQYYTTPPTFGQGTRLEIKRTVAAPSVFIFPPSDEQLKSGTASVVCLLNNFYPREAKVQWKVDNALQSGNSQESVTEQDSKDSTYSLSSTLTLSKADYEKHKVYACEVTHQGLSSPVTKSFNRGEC

These binders were tested against T1, human MAdCAM (assay: BLI (Octet), binder on AHC tips).
How it was run: (§1)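 Kinetic rates and the dissociation constant come from a global one-to-one fit, performed in the Octet data analysis software, of binding measured on an Octet96 RED with anti-human IgG Fc biosensors. Test article at 10 μg/mL in assay buffer was captured on the tips for 240 s. MAdCAM-1, serially diluted over seven points from 200 nM down to 3.13 nM, then associated for 120 s before 120 s of dissociation in assay buffer.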

Row | Kd | koff | kon | Binder
1 | 33.2 nM | 0.0134 s⁻¹ | 404000 M⁻¹ s⁻¹ | B1
2 | 138 nM | 0.0658 s⁻¹ | 476000 M⁻¹ s⁻¹ | B2
3 | 395 nM | 0.114 s⁻¹ | 288000 M⁻¹ s⁻¹ | B3
4 | 109 nM | 0.0325 s⁻¹ | 298000 M⁻¹ s⁻¹ | B4
5 | 285 nM | 0.0838 s⁻¹ | 294000 M⁻¹ s⁻¹ | B5
6 | 110 nM | 0.0389 s⁻¹ | 355000 M⁻¹ s⁻¹ | B6
7 | 43.6 nM | 0.0212 s⁻¹ | 486000 M⁻¹ s⁻¹ | B7
8 | 92.2 nM | 0.128 s⁻¹ |  | B8
9 | 86.2 nM | 0.0902 s⁻¹ | 1.05e+06 M⁻¹ s⁻¹ | B9

The binders below were run against T2, mouse MAdCAM (assay: BLI (Octet), binder on AHC tips).
How it was run: as §1

Row | Kd | koff | kon | response | Binder
10 | 52.4 nM | 0.00596 s⁻¹ | 114000 M⁻¹ s⁻¹ | 0.0549 | B1
11 | 134 nM | 0.0118 s⁻¹ | 87900 M⁻¹ s⁻¹ | 0.132 | B2
12 | 105 nM | 0.017 s⁻¹ | 162000 M⁻¹ s⁻¹ | 0.129 | B3
13 | 206 nM | 0.0251 s⁻¹ | 122000 M⁻¹ s⁻¹ | 0.169 | B4
14 | 176 nM | 0.0178 s⁻¹ | 101000 M⁻¹ s⁻¹ | 0.152 | B5
15 | 141 nM | 0.0178 s⁻¹ | 126000 M⁻¹ s⁻¹ | 0.141 | B6
16 | 115 nM | 0.012 s⁻¹ | 105000 M⁻¹ s⁻¹ | 0.133 | B7
17 | 1020 nM | 0.00469 s⁻¹ | 4580 M⁻¹ s⁻¹ | 0.0278 | B8
18 | 103 nM | 0.00886 s⁻¹ | 85900 M⁻¹ s⁻¹ | 0.083 | B9

These binders were tested against T1, human MAdCAM (assay: BLI (Octet)).

Row | Kd | koff | kon | response | Binder
19 | 198 nM | 0.0511 s⁻¹ | 259000 M⁻¹ s⁻¹ | 0.184 | B10
20 | 592 nM | 0.14 s⁻¹ | 236000 M⁻¹ s⁻¹ |  | B11
21 | 47.6 nM | 0.00163 s⁻¹ | 34300 M⁻¹ s⁻¹ |  | B12
22 | 73.1 nM | 0.0839 s⁻¹ | 1.15e+06 M⁻¹ s⁻¹ | 0.0655 | B13
23 | 17.1 nM | 0.0636 s⁻¹ | 3.73e+06 M⁻¹ s⁻¹ | 0.0416 | B14
24 | 208 nM | 0.00491 s⁻¹ | 23600 M⁻¹ s⁻¹ |  | B15
25 | 49.7 nM | 0.000716 s⁻¹ | 14400 M⁻¹ s⁻¹ |  | B16
26 | 134 nM | 0.0631 s⁻¹ | 472000 M⁻¹ s⁻¹ | 0.186 | B17

Each binder was assayed against T3, cyno MAdCAM (cynomolgus) (assay: BLI (Octet)).
T3 construct: also called cynomolgus MAdCAM

Row | Kd | koff | kon | response | Binder
27 | 22.6 nM | 0.0102 s⁻¹ | 453000 M⁻¹ s⁻¹ | 0.145 | B10
28 | 158 nM | 0.0114 s⁻¹ | 71900 M⁻¹ s⁻¹ |  | B11
29 | 44.3 nM | 0.00924 s⁻¹ | 209000 M⁻¹ s⁻¹ |  | B12
30 | 96.5 nM | 0.0591 s⁻¹ | 612000 M⁻¹ s⁻¹ |  | B15
31 | 379 nM | 0.0217 s⁻¹ | 57100 M⁻¹ s⁻¹ |  | B16

Each binder was assayed against T2, mouse MAdCAM (assay: BLI (Octet)).

Row | Kd | koff | kon | response | Binder
32 | 201 nM | 0.0776 s⁻¹ | 386000 M⁻¹ s⁻¹ |  | B10
33 | 248 nM | 0.00138 s⁻¹ | 5570 M⁻¹ s⁻¹ |  | B11
34 | 59.5 nM | 0.00131 s⁻¹ | 22000 M⁻¹ s⁻¹ |  | B12
35 | 161 nM | 0.00147 s⁻¹ | 9120 M⁻¹ s⁻¹ |  | B15
36 | 1740 nM | 0.217 s⁻¹ | 125000 M⁻¹ s⁻¹ |  | B16
37 | 334 nM | 0.0828 s⁻¹ | 248000 M⁻¹ s⁻¹ | 0.0407 | B17

Reference: US20240010722A1 (published 2024)
